T1: PUF4 RNA-binding domain (Saccharomyces cerevisiae, UniProt P25339 537-888)
T1 sequence: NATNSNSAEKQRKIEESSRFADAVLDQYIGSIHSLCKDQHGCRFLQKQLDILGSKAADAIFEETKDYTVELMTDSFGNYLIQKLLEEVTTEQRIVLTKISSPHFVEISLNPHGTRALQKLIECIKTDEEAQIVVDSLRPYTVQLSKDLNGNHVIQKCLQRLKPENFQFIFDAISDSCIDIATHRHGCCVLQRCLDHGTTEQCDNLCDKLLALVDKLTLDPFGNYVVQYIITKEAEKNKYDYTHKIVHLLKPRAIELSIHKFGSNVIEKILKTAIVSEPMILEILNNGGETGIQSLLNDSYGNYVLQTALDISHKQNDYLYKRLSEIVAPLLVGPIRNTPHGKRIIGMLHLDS

B1: Id_ii_S1_P5E.3_K5.2_C5.2_[C-2A]_H5.2_A5.1_F5.1_T5.2_[A12T] (ssRNA)
RNA: UCUCUUAUUAUAUUAUUAUUUCUCUU
B2: Id_ii_S1_P5E.3_K5.2_C5.2_[T-1C]_H5.2_A5.1_F5.1_T5.2_[A12T] (ssRNA)
RNA: UCUCUUCCUAUAUUAUUAUUUCUCUU
B3: Id_ii_S1_P5E.3_K5.2_C5.2_[C-2A]_H5.2_A5.1_F5.1_T5.2_[T11C]_[A12T] (ssRNA)
RNA: UCUCUUAUUAUAUUAUUACUUCUCUU
B4: Id_ii_S1_P5E.3_K5.2_C5.2_[C-2T]_[T-1A]_H5.2_A5.1_F5.1_T5.2_[T11C]_[A12T] (ssRNA)
RNA: UCUCUUUAUAUAUUAUUACUUCUCUU
B5: Ib_S1_P4E.1_K4.1_C4.1_H4.1_A4.1_[A6T]_[T7C]_F4.1_T4.1 (ssRNA)
RNA: UCUCUUUGUAUUCUAUCUCUU
B6: Id_ii_S1_P5E.3_K5.2_C5.2_[T-1C]_H5.2_A5.1_F5.1_T5.2_[T11C]_[A12G] (ssRNA)
RNA: UCUCUUCCUAUAUUAUUACGUCUCUU
B7: Id_ii_S1_P5E.3_K5.2_C5.2_[C-2T]_H5.2_A5.1_F5.1_T5.2_[T11A]_[A12C] (ssRNA)
RNA: UCUCUUUUUAUAUUAUUAACUCUCUU
B8: Id_ii_S1_P5E.3_K5.2_C5.2_[C-2A]_[T-1C]_H5.2_A5.1_F5.1_T5.2_[A12C] (ssRNA)
RNA: UCUCUUACUAUAUUAUUAUCUCUCUU
B9: Ib_S1_P4E.1_K4.1_C4.1_H4.1_A4.1_[A6T]_[T7G]_F4.1_T4.1 (ssRNA)
RNA: UCUCUUUGUAUUGUAUCUCUU
B10: Id_ii_S1_P5E.3_K5.2_C5.2_[T-1A]_H5.2_A5.1_F5.1_T5.2_[T11C]_[A12T] (ssRNA)
RNA: UCUCUUCAUAUAUUAUUACUUCUCUU
B11: Id_ii_S1_P5E.3_K5.2_C5.2_[C-2A]_[T-1C]_H5.2_A5.1_F5.1_T5.2_[T11C] (ssRNA)
RNA: UCUCUUACUAUAUUAUUACAUCUCUU
B12: Id_ii_S1_P5E.3_K5.2_C5.2_[C-2A]_H5.2_A5.1_F5.1_T5.2_[A12C] (ssRNA)
RNA: UCUCUUAUUAUAUUAUUAUCUCUCUU
B13: Id_ii_S1_P5E.3_K5.2_C5.2_[C-2T]_H5.2_A5.1_F5.1_T5.2_[T11A]_[A12T] (ssRNA)
RNA: UCUCUUUUUAUAUUAUUAAUUCUCUU
B14: Id_ii_S1_P5E.3_K5.2_C5.2_[T-1G]_H5.2_A5.1_F5.1_T5.2_[T11A]_[A12C] (ssRNA)
RNA: UCUCUUCGUAUAUUAUUAACUCUCUU
B15: Id_ii_S1_P5E.3_K5.2_C5.2_[C-2T]_H5.2_A5.1_F5.1_T5.2_[T11G]_[A12C] (ssRNA)
RNA: UCUCUUUUUAUAUUAUUAGCUCUCUU
B16: Id_ii_S1_P5E.3_K5.2_C5.2_[T-1A]_H5.2_A5.1_F5.1_T5.2_[T11C]_[A12C] (ssRNA)
RNA: UCUCUUCAUAUAUUAUUACCUCUCUU
B17: Ib_S1_P4E.1_K4.1_C4.1_H4.1_A4.1_[A6T]_[T7A]_F4.1_T4.1 (ssRNA)
RNA: UCUCUUUGUAUUAUAUCUCUU
B18: Id_ii_S1_P5E.3_K5.2_C5.2_[T-1G]_H5.2_A5.1_F5.1_T5.2_[T11G]_[A12T] (ssRNA)
RNA: UCUCUUCGUAUAUUAUUAGUUCUCUU
B19: Id_ii_S1_P5E.3_K5.2_C5.2_[C-2T]_H5.2_A5.1_F5.1_T5.2_[T11C]_[A12G] (ssRNA)
RNA: UCUCUUUUUAUAUUAUUACGUCUCUU
B20: Id_ii_S1_P5E.3_K5.2_C5.2_[T-1A]_H5.2_A5.1_F5.1_T5.2_[T11G]_[A12G] (ssRNA)
RNA: UCUCUUCAUAUAUUAUUAGGUCUCUU
B21: Id_ii_S1_P5E.3_K5.2_C5.2_[T-1G]_H5.2_A5.1_F5.1_T5.2_[T11A]_[A12T] (ssRNA)
RNA: UCUCUUCGUAUAUUAUUAAUUCUCUU
B22: Id_ii_S1_P5E.3_K5.2_C5.2_[C-2A]_[T-1A]_H5.2_A5.1_F5.1_T5.2_[T11C]_[A12C] (ssRNA)
RNA: UCUCUUAAUAUAUUAUUACCUCUCUU
B23: Id_ii_S1_P5E.3_K5.2_C5.2_[C-2T]_H5.2_A5.1_F5.1_T5.2_[A12C] (ssRNA)
RNA: UCUCUUUUUAUAUUAUUAUCUCUCUU
B24: Id_ii_S1_P5E.3_K5.2_C5.2_[C-2A]_[T-1A]_H5.2_A5.1_F5.1_T5.2_[T11C]_[A12T] (ssRNA)
RNA: UCUCUUAAUAUAUUAUUACUUCUCUU
B25: Id_ii_S1_P5E.3_K5.2_C5.2_[C-2T]_H5.2_A5.1_F5.1_T5.2_[T11C] (ssRNA)
RNA: UCUCUUUUUAUAUUAUUACAUCUCUU
B26: Id_ii_S1_P5E.3_K5.2_C5.2_[C-2A]_[T-1C]_H5.2_A5.1_F5.1_T5.2_[T11C]_[A12C] (ssRNA)
RNA: UCUCUUACUAUAUUAUUACCUCUCUU
B27: Id_ii_S1_P5E.3_K5.2_C5.2_[C-2A]_[T-1A]_H5.2_A5.1_F5.1_T5.2_[T11C] (ssRNA)
RNA: UCUCUUAAUAUAUUAUUACAUCUCUU
B28: Id_ii_S1_P5E.3_K5.2_C5.2_[C-2A]_H5.2_A5.1_F5.1_T5.2_[T11C]_[A12G] (ssRNA)
RNA: UCUCUUAUUAUAUUAUUACGUCUCUU
B29: Id_ii_S1_P5E.3_K5.2_C5.2_[T-1G]_H5.2_A5.1_F5.1_T5.2_[T11G]_[A12C] (ssRNA)
RNA: UCUCUUCGUAUAUUAUUAGCUCUCUU
B30: Id_ii_S1_P5E.3_K5.2_C5.2_[C-2A]_[T-1C]_H5.2_A5.1_F5.1_T5.2_[T11C]_[A12T] (ssRNA)
RNA: UCUCUUACUAUAUUAUUACUUCUCUU
B31: Id_ii_S1_P5E.3_K5.2_C5.2_[T-1A]_H5.2_A5.1_F5.1_T5.2_[T11G]_[A12C] (ssRNA)
RNA: UCUCUUCAUAUAUUAUUAGCUCUCUU

The binders below were run against T1, PUF4 RNA-binding domain (assay: Mg; RNA-MaP; 20 mM Na-HEPES pH 7.4, 30 mM KOAc, 0.75 mM MgCl2, 0.1% Tween-20, 5% glycerol, 0.1 mg/mL BSA, 2 mM DTT; 25 C; 0.0125-409.6 nM protein). Settings: tags: N-His6-TEV cleaved; C-SNAP kept, Cy3B-labelled; label: tethered on chip by stalled RNA polymerase.

Binder	Kd [nM]
B1	160
B2	517
B3	175
B4	13.3
B5	2.85
B6	746
B7	524
B8	536
B9	7.79
B10	321
B11	424
B12	63.5
B13	457
B14	27.7
B15	160
B16	278

Binder	Kd [nM]
B17	2.13
B18	25.4
B19	434
B20	488
B21	26.5
B22	668
B23	550
B24	552
B25	497
B26	520
B27	601
B28	126
B29	25.6
B30	486
B31	157

From publication PMC9352680, “A comprehensive thermodynamic model for RNA binding by the Saccharomyces cerevisiae Pumilio protein PUF4”
